3 molecules from patent publication US20230052680A1 (DIZAL JIANGSU PHARMACEUTICAL, published 2023) can be followed below.

The target in assay [1] is T1, recombinant human FGFR4-Fc (human, UniProt P22455 22-369).
T1 construct: Bought (R&D Systems); not shown: human Fc of the bought fusion protein; not described
T1 sequence (looked up): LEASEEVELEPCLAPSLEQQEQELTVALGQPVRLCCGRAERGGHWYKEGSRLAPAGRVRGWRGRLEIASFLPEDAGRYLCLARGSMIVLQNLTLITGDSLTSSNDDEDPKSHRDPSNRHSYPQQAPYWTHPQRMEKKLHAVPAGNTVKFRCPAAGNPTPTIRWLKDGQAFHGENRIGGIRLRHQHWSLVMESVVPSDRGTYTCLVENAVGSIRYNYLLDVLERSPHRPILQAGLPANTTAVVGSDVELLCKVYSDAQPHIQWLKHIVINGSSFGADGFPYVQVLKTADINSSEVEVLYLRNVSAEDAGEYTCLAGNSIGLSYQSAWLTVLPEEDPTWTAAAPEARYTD
The assay can be described thus: ELISA on FGFR family Fc fusion proteins. (In general: In an ELISA, binding on a coated surface is turned into a signal by an enzyme label.)

For assay [2], the target named is T2, recombinant human FGFR3b-Fc (human, UniProt P22607-2 23-377).
T2 construct: Bought (R&D Systems); not shown: human Fc of the bought fusion protein; not described
T2 sequence (looked up): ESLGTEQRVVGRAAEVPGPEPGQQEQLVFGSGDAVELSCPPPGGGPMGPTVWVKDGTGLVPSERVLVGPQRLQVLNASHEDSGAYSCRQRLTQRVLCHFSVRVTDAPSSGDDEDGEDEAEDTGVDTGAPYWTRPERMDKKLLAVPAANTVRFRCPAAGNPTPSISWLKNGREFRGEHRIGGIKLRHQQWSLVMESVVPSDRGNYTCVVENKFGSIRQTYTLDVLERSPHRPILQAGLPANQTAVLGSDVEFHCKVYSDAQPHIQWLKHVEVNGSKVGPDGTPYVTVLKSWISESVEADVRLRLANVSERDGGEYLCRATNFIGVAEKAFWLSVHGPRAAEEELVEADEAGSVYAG
The assay can be described thus: ELISA on FGFR family Fc fusion proteins.

Assay [3] deals with T3, recombinant human FGFR1b-Fc (human, UniProt P11362-19 22-376, limits assumed).
T3 construct: Bought (R&D Systems); not shown: human Fc of the bought fusion protein; not described
T3 sequence (looked up): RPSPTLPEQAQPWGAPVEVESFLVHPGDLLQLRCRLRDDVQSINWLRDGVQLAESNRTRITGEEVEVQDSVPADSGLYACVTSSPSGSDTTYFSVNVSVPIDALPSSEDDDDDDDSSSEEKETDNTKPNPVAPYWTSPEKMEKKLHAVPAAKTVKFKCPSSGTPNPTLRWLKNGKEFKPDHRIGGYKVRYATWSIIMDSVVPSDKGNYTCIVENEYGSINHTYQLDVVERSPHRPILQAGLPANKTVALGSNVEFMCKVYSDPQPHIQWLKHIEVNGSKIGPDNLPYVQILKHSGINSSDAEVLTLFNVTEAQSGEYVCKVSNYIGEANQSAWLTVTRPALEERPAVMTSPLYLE
The assay can be described thus: ELISA on FGFR family Fc fusion proteins.

Assay [4] addresses T4, recombinant rat/mouse FGFR2b-Fc (rat).
T4 construct: also called rat FGFR2b fused with murine Fc
The assay can be described thus: ELISA, plate coated with 0.1 ug/ml rat/mouse FGFR2b-Fc, anti-human IgG HRP detection. The protocol: (§1) The cross-species binding of Ab 36c to recombinant cyno, rat/mouse, and human FGFR2b-Fc fusion proteins was conducted with ELISA. In brief, 96-well ELISA plate were coated with about 100 ul/well 0.1 μg/ml recombinant human FGFR2b-Fc, recombinant rat/mouse FGFR2b-Fc, or recombinant cyno FGFR2b-Fc protein in PBS overnight. Then the plate was blocked with 2% BSA in PBS with 0.05% Tween20 and incubation with antibody samples for 60 min at room temperature, and then washed twice in 1×TBST (Cell Signaling Technology, #9997) and followed by incubation with anti-human lgG HRP (Horseradish peroxidase) conjugate for 60 min at a room temperature. HRP activity was detected with tetra-methylbenzidine substrate (Cell Signaling Technology, #7004) and the reaction was stopped with stop solution (Cell Signaling Technology, #7002). The plate was read at 450 nm. […] Ab 36c has the highest binding affinity to rat/mouse FGFR2b, followed by human FGFR2b, and then cyno FGFR2b.

Assay [5] addresses T5, recombinant cyno FGFR2b-Fc (Cynomolgus monkey).
T5 construct: also called Cynomolgus monkey FGFR2b ECD-murine Fc; cynomolgus FGFR2b
The assay is described as follows: ELISA, plate coated with 0.1 ug/ml cyno FGFR2b-Fc, anti-human IgG HRP detection. As for the experimental part:
as §1

Assay [6] addresses T1, recombinant human FGFR4-Fc. The assay is described as follows: ELISA, plate coated with HuFGFR4.
For assay [7], the target named is T2, recombinant human FGFR3b-Fc. The assay is described as follows: ELISA, plate coated with HuFGFR3b.
Assay [8] concerns the target T3, recombinant human FGFR1b-Fc. The assay is described as follows: ELISA, plate coated with HuFGFR1b.

B1: Ab hu36-2 (antibody, human IgG1, V domains shown)
VH: QVQLVQSGAEVKKPGSSVKVSCKASGYTFTSYNMHWVRQAPGQGLEWIGAIFPENGDTSYNQKFKGRATITADKSTSTAYMELSSLRSEDTAVYYCARGGFDYWGQGTTVTVSS
VL: DIQMTQSPSSLSASVGDRVTITCKASQDVSTNVAWYQQKPGKAPKLLIFSASYRYTGVPSRFSGSGSGTDFTFTISSLQPEDIATYYCQQHYSSPYTFGQGTKLEIK
notes: Humanized antibody with human IgG1
On to B1, for which the binding result in assay [1], in assay [2] and in assay [3] was “no binding” throughout.

B2: Ab 36c (antibody, V domains shown)
VH: QPYLQQSGAELVRPGASVKMSCKASGYTFTSYNMHWVKQTPRQGLEWIGAIFPENGDTSYNQKFKGKATLTVDKSSSTAYMQLSSLTSEDSAVYFCARGGFDYWGQGTTLTVSS
VL: DIVMTQSHKFMSTSVGDRVSITCKASQDVSTNVAWYQQKPGQSPKLLIFSASYRYTGVPDRFAGSGSGTDFTFTISSVQAEDLAVYYCQQHYSSPYTFGGGTKLDIK
notes: Chimeric: mouse VH and VL fused to human heavy and light chain constant regions; also called chimeric Ab 36; Ab c 36c
As to B2, the “EC50 (read off the curve)” value in assay [4] was about 200 pM; in assay [5], about 400 pM.

B3: Ab 36 (antibody, V domains shown)
VH: QPYLQQSGAELVRPGASVKMSCKASGYTFTSYNMHWVKQTPRQGLEWIGAIFPENGDTSYNQKFKGKATLTVDKSSSTAYMQLSSLTSEDSAVYFCARGGFDYWGQGTTLTVSS
VL: DIVMTQSHKFMSTSVGDRVSITCKASQDVSTNVAWYQQKPGQSPKLLIFSASYRYTGVPDRFAGSGSGTDFTFTISSVQAEDLAVYYCQQHYSSPYTFGGGTKLDIK
notes: Mouse monoclonal antibody from a hybridoma; also called mouse Ab 36; antibody 36
For the molecule B3, the binding result in assay [6], in assay [7] and in assay [8] was “no binding” each time.

In general, EC50 (read off the curve) refers to the concentration that produces a half-maximal response.
